# Test results reported in patent US20260001961A1 (ALLIGATOR BIOSCIENCE, published 2026).
# T1: 5T4 expressed on CHO cells (UniProt Q13641 32-420, limits assumed)
# T1 construct: whole, on cells; also called CHO-5T4; 5T4 expressing CHO cells
# T1 sequence (looked up): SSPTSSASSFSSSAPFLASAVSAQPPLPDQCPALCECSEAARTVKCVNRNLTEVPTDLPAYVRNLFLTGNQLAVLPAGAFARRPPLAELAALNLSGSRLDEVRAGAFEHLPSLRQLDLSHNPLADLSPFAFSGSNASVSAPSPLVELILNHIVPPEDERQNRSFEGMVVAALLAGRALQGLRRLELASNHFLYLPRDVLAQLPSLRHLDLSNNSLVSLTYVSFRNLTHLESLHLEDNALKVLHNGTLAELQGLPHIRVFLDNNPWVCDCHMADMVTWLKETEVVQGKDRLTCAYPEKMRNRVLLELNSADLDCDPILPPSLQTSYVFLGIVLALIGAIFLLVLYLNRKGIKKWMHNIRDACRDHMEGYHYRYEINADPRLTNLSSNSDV
# Legend:
# [1] = target: T1, 5T4 expressed on CHO cells; assay: flow cytometry on CHO cells expressing 5T4, anti-human IgG Fcg-PE; CHOwt cells as control
# Description: (§1) Binding to respective targets expressed on cells were evaluated using flow cytometry. I brief, CHO cells modified to express 5T4, B16 cells modified to express CD40 as well as the wildtype CHO and B16 cell lines were incubated with titrated concentrations of RUBY™ bsAbs. Binding of the antibodies was detected using fluorochrome-conjugated anti-human IgG and analyzed using flow cytometry.
# CD40 expressed on cells [2] = target: T2, CD40 expressed on cells (UniProt P25942 21-277); assay: flow cytometry on B16 cells expressing CD40, anti-human IgG Fcg-PE; B16wt cells as control
# T2 construct: whole, on cells; also called B16-CD40; CD40 expressing B16 cells
# Description: as §1
# CD40 = target: T3, CD40 (UniProt P25942 21-193); assay: dual target ELISA (simultaneous 5T4 and CD40)
# T3 construct: also called biotinylated CD40; CD40 antigen
# Description: Antigen binding was evaluated by dual target ELISA. In brief, relevant antigens were coated at 0.5 μg/ml in PBS in ELISA plates over night at 4° C. After washing in PBS/0.05% Tween 20 (PBST), the plates were blocked with PBST/2% BSA for at least 30 minutes at room temperature before being washed again. Samples serially diluted in PBST/0.5% BSA were then added and allowed to bind for at least 1 hour at room temperature. […] Dual complexed bsAb were detected with HRP-labelled streptavidin. SuperSignal Pico Luminescent was used as substrate and luminescence signals were measured using Fluostar Optima. Binding was compared between parental and mutated RUBY pairs.
# CD40 expressed on cells [3] = target: T2, CD40 expressed on cells; assay: flow cytometry on B16 cells expressing CD40, anti-human IgG Fcg-PE; B16wt cells as control; remark: listed apart in the source
# Description: as §1
# T2 sequence (P25942 21-277 limits assumed): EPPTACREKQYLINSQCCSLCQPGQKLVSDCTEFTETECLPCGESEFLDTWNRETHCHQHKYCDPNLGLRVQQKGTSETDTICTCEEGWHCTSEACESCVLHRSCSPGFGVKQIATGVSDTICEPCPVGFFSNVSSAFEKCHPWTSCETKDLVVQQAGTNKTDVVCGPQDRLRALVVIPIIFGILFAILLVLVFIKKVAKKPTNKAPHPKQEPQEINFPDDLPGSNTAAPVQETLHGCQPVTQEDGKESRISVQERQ
# T3 sequence (P25942 21-193 limits assumed): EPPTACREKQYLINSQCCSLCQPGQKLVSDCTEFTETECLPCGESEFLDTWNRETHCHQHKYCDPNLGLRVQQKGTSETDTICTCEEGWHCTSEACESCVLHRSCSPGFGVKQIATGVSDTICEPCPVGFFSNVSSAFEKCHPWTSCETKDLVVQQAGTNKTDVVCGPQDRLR
EC50 (read off the curve) [1],EC50 (read off the curve) (CD40 expressed on cells [2]),binding result (CD40),binding result (CD40 expressed on cells [3]),Binder
~10 nM,~5 nM,,,"AC_05332 (bispecific antibody, human IgG1, kappa, L234A L235A, RUBY format; H1 (role heavy) = IgG heavy chain-linker-Fab light chain, L1 (role light) = IgG light chain, H2 (role chain) = Fab heavy chain; also called parental bsAb AC_05332; 5T4xCD40) heavy: not shown light: DIQMTQSPSSLSASVGDRVTITCRASQSISSYLNWYQEKPGKAPKLLIYAASSLQSGVPSRFSGSGSGTDFTLTISSLQPEDFATYYCQQTYGYLHTFGQGTKLEIKRTVAAPSVFIFPPSDEQLKSGTASVVCYLNNFYPREAKVQWKVDNALQSGNSQESVTEQDSKDSTYSLWSTLTLSKADYEKHKVYACEVTHQGLSSPVTKSFNRGEC EVQLLESGGGLVQPGGSLRLSCAASGFTFSSYAMSWVREAPGKGLEWVSGIGSYGGGTYYADSVKGRFTISRDNSKNTLYLQMNSLRAEDTAVYYCARYVNFGMDYWGQGTLVTVSSASTKGPSVFPLAPSSKSTSGGTAALGCLVKDYFPEPVTVSWNSGALTSGVHTFPAVLQSSGLYSLSSVVEVPSSSLGTQTYICNVNHKPSNTKVDKKVEPKSC"
,,no binding,no binding (tested: about 330 nM),"AC_05376 (bispecific antibody, AC_05302 with the mutation in the VH of chain H2; also called T65E mutant of AC_05302; copies: 2 + 2 + 2) heavy 1: not shown light: DIQMTQSPSSLSASVGDRVTITCRASQSISSYLNWYQEKPGKAPKLLIYAASSLQSGVPSRFSGSGSGTDFTLTISSLQPEDFATYYCQQYGRNPPTFGQGTKLEIKRTVAAPSVFIFPPSDEQLKSGTASVVCYLNNFYPREAKVQWKVDNALQSGNSQESVTEQDSKDSTYSLWSTLTLSKADYEKHKVYACEVTHQGLSSPVTKSFNRGEC heavy 2: EVQLLESGGGLVQPGGSLRLSCAASGFTFSSYAMSWVREAPGKGLEWVSAISGSGGSEYYADSVKGRFTISRDNSKNTLYLQMNSLRAEDTAVYYCARYYGGYYSAWMDYWGQGTLVTVSSASTKGPSVFPLAPSSKSTSGGTAALGCLVKDYFPEPVTVSWNSGALTSGVHTFPAVLQSSGLYSLSSVVEVPSSSLGTQTYICNVNHKPSNTKVDKKVEPKSC"
